Results on one molecule are retold here after patent US20260139049A1 (PEDIATRIC IMMUNITY AND HEALTHCARE GUANGZHOU BIOTECHNOLOGY, published 2026).

Where two headings read alike, the source gives them in different places.

For assay [1], the target named is T1, human CLDN6 (human, UniProt P56747 1-220).
T1 construct: whole, on cells; four-transmembrane protein; also called claudin-6; HEK293T-CLDN6
T1 sequence (looked up): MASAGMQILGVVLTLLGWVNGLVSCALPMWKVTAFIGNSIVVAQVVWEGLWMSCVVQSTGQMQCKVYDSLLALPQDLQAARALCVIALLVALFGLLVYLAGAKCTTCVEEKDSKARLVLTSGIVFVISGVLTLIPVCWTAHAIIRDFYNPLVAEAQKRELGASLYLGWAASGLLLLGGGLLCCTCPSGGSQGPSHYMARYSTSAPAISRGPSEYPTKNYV
In words: FACS on HepG2 tumour cells; target on the cells taken as CLDN6. The protocol: (§1) 50 μL of an antibody to be tested was added to a 96-well plate, then 1×10⁵ cells were added to each well, and incubation was conducted at 4° C. for 1 h. Cells were washed three times with PBS. […] Finally, cells were washed three times with PBS, and signals were read using FACS. A binding capacity of the antibody to each tumor cell was analyzed based on detection data.

Assay [2] has as its target T1, human CLDN6. The description is as above. The protocol:
as §1
This is another data set of the same source.

Assay [3] concerns the target T1, human CLDN6. Kind of assay: FACS on HEK293T-CLDN6 cells. The protocol: (§2) To detect a binding capacity of a chimeric or humanized antibody to CLDN6, a CLDN6-expressing cell line HEK293T-CLDN6 and a CLDN6-negative control cell line HEK293T were washed three times with PBS. 1×10⁵ test cells and 50 μL of an antibody solution to be tested were added to a 96-well plate, and incubated at 4° C. for 1 h. The cells were then washed three times with PBS. […] Finally, cells were washed three times with PBS, and signals were read using FACS.
(§3) An EC50 value (a concentration of an antibody that binds to half of binding sites at equilibrium) is calculated through nonlinear regression.

Assay [4] addresses T1, human CLDN6. Kind of assay: FACS on HepG2 tumour cells; target on the cells taken as CLDN6. The protocol:
as §1
This is another data set of the same source.

Assay [5] deals with T1, human CLDN6. Kind of assay: FACS on 293T-CLDN6 cells, 10 µg/mL.
In assay [6] the target is T1, human CLDN6. In words: FACS on HEK293T-CLDN6 cells. This is another data set of the same source.
In assay [7] the target is T2, human CLDN9 (human, UniProt O95484 1-217).
T2 construct: whole, on cells; also called HEK293T-CLDN9
T2 sequence (looked up): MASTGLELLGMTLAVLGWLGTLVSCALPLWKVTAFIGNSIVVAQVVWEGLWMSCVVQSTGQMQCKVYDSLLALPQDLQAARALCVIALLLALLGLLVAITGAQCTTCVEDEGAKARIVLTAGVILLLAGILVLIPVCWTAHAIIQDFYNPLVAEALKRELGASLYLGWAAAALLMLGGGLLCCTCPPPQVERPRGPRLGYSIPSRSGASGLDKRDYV
In words: FACS on 293T-CLDN9 cells, 10 µg/mL. The protocol:
(§4) 50 μL of an antibody to be tested was added to a 96-well plate, then 1× 10⁵ cells were added to each well, and incubation was conducted at 4° C. for 1 h. Cells were washed three times with PBS. […] Finally, cells were washed three times with PBS, and signals were read using FACS. Binding capacities of the antibody to CLDN9, CLDN3, and CLDN4 were analyzed separately based on detection data.

Assay [8] deals with T3, mouse CLDN6 (mouse, UniProt Q9Z262 1-219).
T3 construct: whole, on cells; also called CHO-K1-Mouse CLDN6
T3 sequence (looked up): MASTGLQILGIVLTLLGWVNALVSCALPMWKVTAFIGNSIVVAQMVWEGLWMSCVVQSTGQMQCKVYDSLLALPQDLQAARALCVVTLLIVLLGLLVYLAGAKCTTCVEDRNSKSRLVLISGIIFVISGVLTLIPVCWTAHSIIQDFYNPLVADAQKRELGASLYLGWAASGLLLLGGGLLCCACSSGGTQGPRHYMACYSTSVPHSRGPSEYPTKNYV
Kind of assay: FACS on CHO-K1-Mouse CLDN6 cells.

The target in assay [9] is T4, monkey CLDN6 (Cyno CLDN6) (monkey (Cyno)).
T4 construct: whole, on cells; also called CHO-K1-Cyno CLDN6
Kind of assay: FACS on CHO-K1-Cyno CLDN6 cells.

For assay [10], the target named is T1, human CLDN6. Kind of assay: FACS on HepG2 tumour cells, 5 µg/mL; target on the cells taken as CLDN6. The protocol:
as §1

Assay [11] deals with T1, human CLDN6. Kind of assay: FACS on HEK293T-CLDN6 cells. On the procedure: as §2, §3
This is another data set of the same source.

Assay [12] deals with T1, human CLDN6. Kind of assay: FACS on 293T-CLDN6 cells, 10 µg/mL. This is another data set of the same source.
Assay [13] concerns the target T1, human CLDN6. Kind of assay: FACS on HepG2 tumour cells; target on the cells taken as CLDN6. On the procedure:
as §1
The source holds these as a separate data set.

The target of assay [14] is T1, human CLDN6. In words: FACS on HEK293T-CLDN6 cells. On the procedure: as §2, §3
The source holds these as a separate data set.

In assay [15] the target is T1, human CLDN6. Kind of assay: FACS on PA-1 tumour cells; target on the cells taken as CLDN6. On the procedure: as §1
For assay [16], the target named is T2, human CLDN9. Kind of assay: FACS on 293T-CLDN9 cells, 10 µg/mL. On the procedure:
as §4
This is another data set of the same source.

The target in assay [17] is T1, human CLDN6. Kind of assay: FACS on PA-1 tumour cells; target on the cells taken as CLDN6. The source holds these as a separate data set.

B1: IMAB027 (antibody, human IgG1, kappa, V domains shown)
VH: EVQLQQSGPELVKPGASMKISCKASGYSFTGYTMNWVKQSHGKNLEWIGLINPYNGGTIYNQKFKGKATLTVDKSSSTAYMELLSLTSEDSAVYYCARDYGFVLDYWGQGTTLTVSS
VL: IVLTQSPAIMSASPGEKVTITCSASSSVSYLHWFQQKPGTSPKLWVYSTSNLPSGVPARFGGSGSGTSYSLTISRMEAEDAATYYCQQRSIYPPWTFGGGTKLEIKR
notes: variable regions of mAb206-LCC on human IgG1 constant regions; also called benchmark antibody; control antibody
B1: the EC50 in assay [1] is 0.515 mg/L; in assay [2], 0.242 mg/L; in assay [3] it was 0.213 mg/L; in assay [4], 0.959 mg/L; in [6] it was 0.0727 mg/L; in assay [8], 0.181 mg/L. The EC50 in assay [9] was 0.131 mg/L; in assay [11] it was 0.0461 mg/L; in [13] it was 0.583 mg/L; in [14] it was 0.282 mg/L; in assay [15], 0.141 mg/L; in assay [17], 0.0741 mg/L. Moreover, the Geom.Mean in assay [5] was 44300; in assay [7], 985; in assay [10] it was 970; in assay [12], 23600; in [16], 3810.

Usually EC50 stands for the concentration needed to bring the measured effect to its halfway point.
